Laboratory results: patent US20200024322A1 (Eli Lilly, published 2020)
Where a chain is given by its changes, count along the chain named. Numbered stars: 1 amine (or outer) side, 2 acyl side, 3 side chain; on linkers, the order of the positions; unused ones are H or OH. Square brackets hold non-standard residues; d marks the D form. Side chains are listed from the residue outwards. Ends that are not written are not given here. * marks the point of attachment. C18 diacid = O=C(O)CCCCCCCCCCCCCCCCC(=O)*; αMePhe(2-F) = C[C@](N)(Cc1ccccc1F)C(=O)O; γGlu = O=C(O)[C@H](CCC(=O)[*:2])N[*:1]; αMeL = CC(C)C[C@](C)(N)C(=O)O; AEEA = NCCOCCOCC(=O)O; Aib = CC(C)(N)C(=O)O

T1: human gastric inhibitory peptide receptor (GIPR) (human, UniProt P48546 22-466)
T1 sequence (looked up): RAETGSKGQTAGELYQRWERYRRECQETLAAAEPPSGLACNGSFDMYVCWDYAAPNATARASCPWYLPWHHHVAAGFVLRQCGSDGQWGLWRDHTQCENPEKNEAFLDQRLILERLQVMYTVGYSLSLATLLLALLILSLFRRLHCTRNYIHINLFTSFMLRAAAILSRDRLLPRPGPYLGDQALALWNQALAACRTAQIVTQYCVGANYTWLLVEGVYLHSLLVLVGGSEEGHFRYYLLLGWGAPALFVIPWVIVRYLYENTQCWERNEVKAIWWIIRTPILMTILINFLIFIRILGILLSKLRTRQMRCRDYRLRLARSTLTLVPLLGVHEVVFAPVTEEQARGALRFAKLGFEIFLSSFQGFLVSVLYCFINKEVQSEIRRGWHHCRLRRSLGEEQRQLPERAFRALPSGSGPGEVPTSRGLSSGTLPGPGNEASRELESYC

T2: human gastric inhibitory peptide receptor (GIPR) (human), P48546
T2 chain: T1 sequence (looked up)

T3: human GLP-1 receptor (GLP-1R) (human), P43220
T3 chain: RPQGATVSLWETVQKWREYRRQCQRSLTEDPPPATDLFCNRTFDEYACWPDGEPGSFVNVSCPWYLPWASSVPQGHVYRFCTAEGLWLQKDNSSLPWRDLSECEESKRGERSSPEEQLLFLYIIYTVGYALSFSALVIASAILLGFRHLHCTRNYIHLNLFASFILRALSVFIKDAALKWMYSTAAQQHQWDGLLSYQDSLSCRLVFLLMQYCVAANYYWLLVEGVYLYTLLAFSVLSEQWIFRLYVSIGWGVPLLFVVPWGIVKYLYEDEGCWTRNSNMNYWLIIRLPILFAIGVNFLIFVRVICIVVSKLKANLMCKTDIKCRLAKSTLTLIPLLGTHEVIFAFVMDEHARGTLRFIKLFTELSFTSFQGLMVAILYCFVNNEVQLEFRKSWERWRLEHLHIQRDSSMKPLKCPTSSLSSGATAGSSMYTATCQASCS

B1: (D-Tyr)-Aib-EGTFTSDYSI-αMeL-LD-Orn-K((2-[2-(2-Amino-ethoxy)-ethoxy]-acetyl)2-(c-Glu)-CO-(CH2)18-CO2H)AQ-Aib-EFIEYLIAGGPSSG-NH2 (peptide)
peptide: XXEGTFTSDYSIXLDXKAQXEFIEYLIAGGPSSG
modifications: D-Tyr1; Aib2; αMeL13; Orn16; K17 conjugated to (2-[2-(2-Amino-ethoxy)-ethoxy]-acetyl)2-(c-Glu)-CO-(CH2)18-CO2H ('c-Glu' as printed, presumably γ-Glu); Aib20; C-terminal amide (NH2)
B2: (D-Tyr)-Aib-EGTFTSDYSI-αMeL-LD-Orn-K((2-[2-(2-Amino-ethoxy)-ethoxy]-acetyl)2-(γ-Glu)-CO-(CH2)16-CO2H)AQ-Aib-AFV-(D-Glu)-YLIAGGPSSGAPPPS-NH2 (peptide)
peptide: XXEGTFTSDYSIXLDXKAQXAFVXYLIAGGPSSGAPPPS
modifications: D-Tyr1; Aib2; αMeL13; Orn16; K17 conjugated to (2-[2-(2-Amino-ethoxy)-ethoxy]-acetyl)2-(γ-Glu)-CO-(CH2)16-CO2H; Aib20; D-Glu24; C-terminal amide (NH2)
B3: (D-Tyr)-Aib-EGTFTSDYSI-αMeL-LD-Orn-K((2-[2-(2-Amino-ethoxy)-ethoxy]-acetyl)2-(γ-Glu)-CO-(CH2)16-CO2H)AQ-Aib-EFIEYLIAGGPSSGAPPPS-NH2 (peptide)
peptide: B2 peptide with A21E, V23I, X24E
modifications: D-Tyr1; Aib2; αMeL13; Orn16; K17 conjugated to (2-[2-(2-Amino-ethoxy)-ethoxy]-acetyl)2-(γ-Glu)-CO-(CH2)16-CO2H; Aib20; C-terminal amide (NH2)
B4: (D-Tyr)-Aib-EGTFTSDYSI-αMeL-LD-Orn-K((2-[2-(2-Amino-ethoxy)-ethoxy]-acetyl)2-(γ-Glu)-CO-(CH2)16-CO2H)AQ-Aib-AFIE-αMeY-LIAGGPSSGAPPPS-NH2 (peptide)
peptide: B2 peptide with V23I, X24E, Y25X
modifications: D-Tyr1; Aib2; αMeL13; Orn16; K17 conjugated to (2-[2-(2-Amino-ethoxy)-ethoxy]-acetyl)2-(γ-Glu)-CO-(CH2)16-CO2H; Aib20; αMeY25; C-terminal amide (NH2)
B5: (D-Tyr)-Aib-EGTFTSDYSI-αMeL-LDKK((2-[2-(2-Amino-ethoxy)-ethoxy]-acetyl)-(γ-Glu)-CO-(CH2)18-CO2H)AQ-Aib-EFIEYLIAGGPSSGAPPPS-NH2 (peptide)
peptide: B2 peptide with X16K, A21E, V23I, X24E
modifications: D-Tyr1; Aib2; αMeL13; K17 conjugated to (2-[2-(2-Amino-ethoxy)-ethoxy]-acetyl)-(γ-Glu)-CO-(CH2)18-CO2H; Aib20; C-terminal amide (NH2)
B6: (D-Tyr)-Aib-EGTFTSDYSI-αMeL-LD-Orn-K((2-[2-(2-Amino-ethoxy)-ethoxy]-acetyl)2-(γ-Glu)-CO-(CH2)18-CO2H)AQ-Aib-AFIE-αMeY-LIAGGPSSGAPPPS-NH2 (peptide)
peptide: B2 peptide with V23I, X24E, Y25X
modifications: D-Tyr1; Aib2; αMeL13; Orn16; K17 conjugated to (2-[2-(2-Amino-ethoxy)-ethoxy]-acetyl)2-(γ-Glu)-CO-(CH2)18-CO2H; Aib20; αMeY25; C-terminal amide (NH2)
B7: (D-Tyr)-Aib-EGTFTSDYSI-αMeL-LDKK((2-[2-(2-Amino-ethoxy)-ethoxy]-acetyl)2-(γ-Glu)-CO-(CH2)16-CO2H)AQ-Aib-AFIE-αMeY-LIAGGPSSGAPPPS-NH2 (peptide)
peptide: B2 peptide with X16K, V23I, X24E, Y25X
modifications: D-Tyr1; Aib2; αMeL13; K17 conjugated to (2-[2-(2-Amino-ethoxy)-ethoxy]-acetyl)2-(γ-Glu)-CO-(CH2)16-CO2H; Aib20; αMeY25; C-terminal amide (NH2)
B8: (D-Tyr)-Aib-EGTFTSDYSI-αMeL-LD-Orn-K((2-[2-(2-Amino-ethoxy)-ethoxy]-acetyl)-(γ-Glu)-CO-(CH2)18-CO2H)AQ-Aib-EFIEYLIAGGPSSGAPPPS-NH2 (peptide)
peptide: B2 peptide with A21E, V23I, X24E
modifications: D-Tyr1; Aib2; αMeL13; Orn16; K17 conjugated to (2-[2-(2-Amino-ethoxy)-ethoxy]-acetyl)-(γ-Glu)-CO-(CH2)18-CO2H; Aib20; C-terminal amide (NH2)
B9: (D-Tyr)-Aib-EGTFTSDYSI-αMeL-LDKK((2-[2-(2-Amino-ethoxy)-ethoxy]-acetyl)2-(γ-Glu)-CO-(CH2)18-CO2H)AQ-Aib-AFIE-αMeY-LIAGGPSSGAPPPS-NH2 (peptide)
peptide: B2 peptide with X16K, V23I, X24E, Y25X
modifications: D-Tyr1; Aib2; αMeL13; K17 conjugated to (2-[2-(2-Amino-ethoxy)-ethoxy]-acetyl)2-(γ-Glu)-CO-(CH2)18-CO2H; Aib20; αMeY25; C-terminal amide (NH2)
B10: (D-Tyr)-Aib-EGTFTSDYSI-αMeL-LDKK((2-[2-(2-Amino-ethoxy)-ethoxy]-acetyl)-(γ-Glu)-CO-(CH2)18-CO2H)AQ-Aib-AFIE-αMeY-LIAGGPSSGAPPPS-NH2 (peptide)
peptide: B2 peptide with X16K, V23I, X24E, Y25X
modifications: D-Tyr1; Aib2; αMeL13; K17 conjugated to (2-[2-(2-Amino-ethoxy)-ethoxy]-acetyl)-(γ-Glu)-CO-(CH2)18-CO2H; Aib20; αMeY25; C-terminal amide (NH2)
B11: (D-Tyr)-Aib-EGTFTSDYSI-αMeL-LD-Orn-K((2-[2-(2-Amino-ethoxy)-ethoxy]-acetyl)2-(γ-Glu)-CO-(CH2)16-CO2H)AQ-Aib-EFIE-αMeY-LIAGGPSSGAPPPS-NH2 (peptide)
peptide: B2 peptide with A21E, V23I, X24E, Y25X
modifications: D-Tyr1; Aib2; αMeL13; Orn16; K17 conjugated to (2-[2-(2-Amino-ethoxy)-ethoxy]-acetyl)2-(γ-Glu)-CO-(CH2)16-CO2H; Aib20; αMeY25; C-terminal amide (NH2)
B12: (D-Tyr)-Aib-EGTFTSDYSI-αMeL-LD-Orn-K((2-[2-(2-Amino-ethoxy)-ethoxy]-acetyl)2-(γ-Glu)-CO-(CH2)18-CO2H)AQ-Aib-DFIEYLIAGGPSSGAPPPS-NH2 (peptide)
peptide: B2 peptide with A21D, V23I, X24E
modifications: D-Tyr1; Aib2; αMeL13; Orn16; K17 conjugated to (2-[2-(2-Amino-ethoxy)-ethoxy]-acetyl)2-(γ-Glu)-CO-(CH2)18-CO2H; Aib20; C-terminal amide (NH2)
B13: Y-Aib-EGTFTSDYSI-αMeL-LDKK((2[2-(2-Amino-ethoxy)-ethoxy]-acetyl)2-(γ-Glu)-CO-(CH2)18-CO2H)AQ-Aib-EFIE-αMeY-LIAGGPSSGAPPPS-NH2 (peptide)
peptide: YXEGTFTSDYSIXLDKKAQXEFIEXLIAGGPSSGAPPPS
modifications: Aib2; αMeL13; K17 conjugated to (2-[2-(2-Amino-ethoxy)-ethoxy]-acetyl)2-(γ-Glu)-CO-(CH2)18-CO2H; Aib20; αMeY25; C-terminal amide (NH2)
B14: (D-Tyr)-Aib-EGTFTSDYSI-αMeL-LD-Orn-K((2-[2-(2-Amino-ethoxy)-ethoxy]-acetyl)2-(γ-Glu)-CO-(CH2)18-CO2H)AQ-Aib-EFIE-αMeY-LIEGGPSSGAPPPS-NH2 (peptide)
peptide: B13 peptide with Y1X, K16X, A28E
modifications: D-Tyr1; Aib2; αMeL13; Orn16; K17 conjugated to (2-[2-(2-Amino-ethoxy)-ethoxy]-acetyl)2-(γ-Glu)-CO-(CH2)18-CO2H; Aib20; αMeY25; C-terminal amide (NH2)
B15: (D-Tyr)-Aib-EGTFTSDYSI-αMeL-LDKK((2-[2-(2-Amino-ethoxy)-ethoxy]-acetyl)2-(γ-Glu)-CO-(CH2)18-CO2H)AQ-Aib-EFIE-αMeY-LIEGGPSSGAPPPS-NH2 (peptide)
peptide: B13 peptide with Y1X, A28E
modifications: D-Tyr1; Aib2; αMeL13; K17 conjugated to (2-[2-(2-Amino-ethoxy)-ethoxy]-acetyl)2-(γ-Glu)-CO-(CH2)18-CO2H; Aib20; αMeY25; C-terminal amide (NH2)
B16: (D-Tyr)-Aib-EGTFTSDYSI-αMeL-LDKK((2-[2-(2-Amino-ethoxy)-ethoxy]-acetyl)2-(γ-Glu)-CO-(CH2)16-CO2H)AQ-Aib-EFIE-αMeY-LIAGGPSSGAPPPS-NH2 (peptide)
peptide: B13 peptide with Y1X
modifications: D-Tyr1; Aib2; αMeL13; K17 conjugated to (2-[2-(2-Amino-ethoxy)-ethoxy]-acetyl)2-(γ-Glu)-CO-(CH2)16-CO2H; Aib20; αMeY25; C-terminal amide (NH2)
B17: (D-Tyr)-Aib-EGTFTSDYSI-αMeL-LDKK((2-[2-(2-Amino-ethoxy)-ethoxy]-acetyl)-(γ-Glu)-CO-(CH2)18-CO2H)AQ-Aib-EFIE-αMeY-LIAGGPSSGAPPPS-NH2 (peptide)
peptide: B13 peptide with Y1X
modifications: D-Tyr1; Aib2; αMeL13; K17 conjugated to (2-[2-(2-Amino-ethoxy)-ethoxy]-acetyl)-(γ-Glu)-CO-(CH2)18-CO2H; Aib20; αMeY25; C-terminal amide (NH2)
B18: Example 179 (peptide)
peptide: Y[Aib]EGT[αMePhe(2-F)]TSDHSI[αMeL]LDEK([AEEA-AEEA-γGlu-C18 diacid])AQ[Aib]HFI[dE]YLIEGGPSSG-NH2
modifications: not fully specified
B19: Example 180 (peptide)
peptide: Y[Aib]EGT[αMePhe(2-F)]TSDHSI[αMeL]LDEK([AEEA-AEEA-γGlu-C18 diacid])AQ[Aib]HFI[dE]YLIEGG-NH2
modifications: not fully specified

The binders below were run against human GLP-1 receptor (GLP-1R) (human, UniProt P43220 24-463) (assay: cell-based or functional assay).

Binder	hGLP1R cAMP EC50 ratio
B1	0.172
B2	0.0303
B3	0.299
B4	0.199
B5	0.142
B6	0.074
B7	0.159
B8	0.206
B9	0.155
B10	0.0621
B11	0.178
B12	0.319
B13	0.386
B14	0.115
B15	0.114
B16	0.169
B17	0.0741

These binders were tested against T1, human gastric inhibitory peptide … (assay: cell-based or functional assay).

Binder	hGIPR cAMP EC50 ratio
B1	0.704
B2	0.347
B3	0.109
B4	0.976
B5	0.793
B6	0.598
B7	0.734
B8	0.393
B9	0.784
B10	0.287
B11	1.13
B12	0.499
B13	5.85
B14	0.374
B15	0.672
B16	1.76
B17	0.68

Biological target: T2, human gastric inhibitory peptide …
Assay: cell-based or functional assay

Binder	hGIPR cAMP EC50 ratio	hGIPR cAMP Rel EC50
B18	0.0575	1.83 nM
B19	0.133	0.79 nM

Biological target: T3, human GLP-1 receptor (GLP-1R) (human), …
Assay: cell-based or functional assay

Binder	hGLP1R cAMP EC50 ratio	hGLP1R cAMP Rel EC50
B18	0.0169	2.7 nM
B19	0.0212	2.16 nM
